The supplement of paper PMC10567573

B1: SMG5 (parent)
chain: QEKLQVLMAEGLLPAVKVFLDWLR
B2: FAM107A (parent)
chain: HRRGLGVDSKPELQRVLEHRRRNQ

Variants of: B1
Experiment: protein stability index of a GFP-peptide fusion (GPS, HEK-293T) (PSI 1-6); higher = more stable
Conditions: c terminus: a fixed tail appended
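Also: lentivirally expressed fusions sorted by FACS into six bins by GFP to DsRed ratio, PSI derived from sequencing read proportions per bin multiplied by bin number.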

Protein stability index of substitutions, site by site:
L12: P 3.4 | Q 2.1 | R 3.06 | S 2.42 | T 2.21 | V 1.39 | W 1.8 | Y 2.32
L13: A 2.36 | C 2.25 | D 1.98 | E 1.09 | F 1.38 | G 2.17 | H 2.6 | K 1.62 | M 2.27 | N 1.99 | P 2.6 | Q 1.71 | R 1.37 | S 2.78 | T 1.29 | V 2.04 | W 2.62 | Y 3.17
P14: A 2.25 | C 1.7 | D 2.29 | E 1.96 | F 1.97 | G 1.17 | I 1.19 | K 3.27 | L 1.67 | M 1.75 | N 2.38 | Q 1.83 | R 1.69 | S 2.32 | T 2.54 | V 1.42 | W 2.46 | Y 2.43
A15: C 2.72 | D 1.66 | E 2 | F 2.42 | G 2.45 | H 1.99 | I 1.76 | L 1.63 | M 2.05 | N 2.4 | P 1.86 | Q 2.21 | R 4.13 | S 2.39 | T 3.37 | V 1.88 | W 1.88 | Y 2.5
V16: A 1.67 | C 1.98 | D 1.95 | E 2.15 | F 2.56 | G 1.15 | H 1.93 | I 2.16 | K 2.04 | L 1.39 | M 1.85 | N 1.75 | P 3.13 | Q 1.86 | R 2.25 | S 2.31 | T 2.46 | W 1.96 | Y 2.29
K17: A 2.99 | C 1.86 | D 1.27 | E 1.72 | F 1.91 | G 1.91 | H 1.71 | I 2.31 | L 2.03 | M 1.79 | N 2.26 | P 1.2 | Q 1.44 | R 2.07 | S 1.82 | T 2.05 | V 1.52 | W 2.18 | Y 2.78
V18: A 2.19 | C 2.37 | D 2.44 | E 2.37 | F 1.94 | G 3.13 | H 3.52 | I 2.82 | K 2.05 | L 1.99 | M 2.59 | P 1.91 | Q 3.07 | R 3.86 | S 3.52 | T 3.25 | W 1.64 | Y 3.16
F19: A 2.97 | C 2.4 | D 2.14 | E 1.53 | G 3.15 | H 1.31 | I 2.39 | K 2.35 | L 1.9 | M 2.48 | N 1.53 | P 2.17 | Q 2.13 | R 2.12 | S 2.73 | W 1.89 | Y 1.6
L20: A 3.26 | C 3.11 | D 1.59 | E 1.7 | F 2.52 | G 1.77 | I 2.02 | K 1.41 | M 2.64 | P 1.76 | Q 2.02 | R 1.58 | S 2.73 | T 3.12 | V 1.4 | W 2.29 | Y 1.54
D21: A 2.05 | C 1.68 | E 1.33 | F 3.72 | G 2.04 | H 3.17 | I 2.5 | K 2.54 | L 2.2 | M 2.04 | N 2.6 | P 1.65 | T 2.98 | Y 3.03
W22: A 2.8 | C 1.99 | E 2.05 | F 2.09 | G 2.63 | H 2.73 | I 1.96 | K 2.53 | L 2.47 | M 1.57 | N 2.28 | P 2.26 | Q 2.38 | R 1.95 | S 2.17 | T 1.91 | V 1.62 | Y 2.13
L23: A 1.72 | C 1.08 | D 2.75 | E 1.26 | F 2.67 | G 2.66 | H 1.27 | I 2.39 | K 1.83 | M 4.59 | N 2.58 | P 2.21 | Q 1.91 | R 2.38 | S 2.57 | T 1.19 | V 1.67 | W 1.7 | Y 1.97
R24: A 1.21 | C 1.59 | D 2 | E 2.5 | F 2.23 | G 1.43 | H 2.6 | I 1.93 | K 2.45 | L 2.96 | M 1.89 | N 1.92 | P 3.34 | Q 1.75 | S 2.62 | T 1.88 | V 1.67 | W 1.83 | Y 1.91

Variants of: B2
Experiment: as above
Conditions: c terminus: a fixed tail appended

Protein stability index of substitutions, site by site:
H1: A 3.52 | C 3.42 | E 4.92 | K 4.53 | L 4.8 | N 4.5 | P 2 | R 4.55 | S 4.16 | T 4.04 | V 4.43 | W 3.11 | Y 4.12
R2: C 4.78 | D 5.11 | E 4.7 | F 4.86 | G 4.84 | H 4.05 | I 3.4 | K 3.05 | L 3.91 | N 4.2 | P 4.96 | Q 4.58 | T 4.95 | V 5 | W 3.71 | Y 5.39
R3: A 4.9 | C 3.97 | E 4.2 | F 3.9 | G 5.11 | H 4.95 | I 4.29 | K 4.52 | L 4.14 | M 3.9 | N 4.25 | P 4.55 | Q 3.65 | S 4.91 | T 4.92 | V 4.74 | W 4.22
G4: A 3.35 | C 4.02 | D 4.49 | E 5.08 | F 4.72 | H 4.3 | I 4.21 | K 5.72 | N 4.42 | P 4.8 | Q 4.33 | R 4.2 | S 3.63 | T 3.35 | V 4.87 | Y 4.32
L5: A 4 | E 4.34 | F 4.13 | H 4.21 | I 3.15 | K 4.04 | M 4.52 | P 4.16 | Q 5.16 | R 5.2 | T 4.82 | V 3.46 | Y 4.66
G6: A 1.82 | D 2.51 | F 3.06 | H 3.22 | I 3.68 | K 2.56 | M 4.25 | P 4.63 | Q 3.18 | T 2.78 | Y 3.5
V7: A 3.74 | C 3.07 | D 4.93 | F 3.42 | H 2.61 | K 4.33 | M 3.62 | Q 4.95 | R 4.39 | S 4.88 | T 4.79 | Y 4.23
D8: A 2.92 | C 3.08 | E 4.59 | F 2.23 | G 3.42 | H 3.74 | I 3.74 | K 3.79 | M 3.18 | N 3 | P 2.54 | Q 3.34 | R 4.26 | S 2.41
